Measured values reported in the DeepSol protein solubility set.

Experiment: soluble on expression in E. coli; label from the status in PepcDB or PDB records

Sequence	soluble on expression in E. coli
MSLAPLVAMVGGGQLARMTHQAAIALGQNLRVLVTSADDPAAQVTPNVVIGSHTDLAALRRVAAGADVLTFDHEHVPNELLEKLVADGVNVAPSPQALVHAQDKLVMRQRLAAAGVAVPRYAGIKDPDEIDVFAARVDAPIVVKAVRGGYDGRGVRMARDVADARDFARECLADGVAVLVEERVDLRRELSALVARSPFGQGAAWPVVQTVQRDGTCVLVIAPAPALPDDLATAAQRLALQLADELGVVGVLAVELFETTDGALLVNELAMRPHNSGHWTIDGARTSQFEQHLRAVLDYPLGDSDAVVPVTVMANVLGAAQPPAMSVDERLHHLFARMPDARVHLYGKAERPGRKVGHINFLGSDVAQLCERAELAAHWLSHGRWTDGWDPHRASDDAVGVPPACGGRSDEEERREGHHHHHH	soluble
MGISPDAASKLYTVKFQPDPIDKKGWSVIDFNNCCTQDGGWYLNMGWGVESLIDNNPGTQWLCRWDVKEPLPYYFVFDMGKEYTLFRFGFANPVAPAAHVWAGTSKAGYVEASIDNENWVKLKDWTSPKIGEPNVNMDVPATQARYIRFVITDTYPTYDGLRVSLGEVYAWGLEHHHHHH	soluble
MLKVIDVDFVSDHTLELTFNDGYQGYADLSVYFKKAPFSEIKDFKRFSLTRDGSLNWDGNELTAATLRDITKGSQKSVELSFNVQEMEAVIKQASWESMMEGRPDILQAAIRSYVEQFGHGQVIAKAGIKSRTSAYRSLKPETTPNFGTLVQLGHAVIELAKDRTVANKEPRI	not soluble
MGSDKIHHHHHHLGKFSHIAIAFIDVVMESDHAGLELIRWIREELHNKTIRLILRTGQPGQAPEEDVIVNYDINDYKAKSELDSRKLMTSVYSALRSYRDIMEIEQARRAQLSHRMGLERVLEATAGLFELRTLHKFADGLLTQVATLLNLDNETLLLSCNAMDAISGHVDCAGIEILAGTGQFANSSAKTILPERIDKLLRSALAQKRCLYEDNYFVGYFPTKSGLINLLYMDGINKIDDLDKKLIDIFAINVGIAFENLLLNQEVEDTQSELILRLGDVVESRSKEAANHVKRMAEYCAQLALLAGLNEYDADLLRRASPMHDIGKIAIPDAVLLKPGKLNDDEWQIMRQHPNIGHQILANSERPILKAASIIALQHHEKYDGSGYPSNLKQDEIHIFARIVAIADVFDALSHTRCWLFLPIPQKCKISDRLAQKHTVNWSLYRRIP	not soluble
MGSDKIHHHHHHMFLKENSVDDFDKQLDDLFKTTKTSRISELSEALGVSPTTIRTWRGRNKIPASAFRKAELSIQNDSDVKTDTRISLSFYEISASAGGGALVEVEEQANLISFEPEWLNKEIGVNANDVFLMLVDGDSMYPTLKNGAMIMVNKHFNGLSDGIYVMRHEQNLLVKRLQMLPNGIIKVKSDNNLYEPWEINKENLDGTDIEIIGRVVWSGQRM	not soluble
KLVFLHGLGQDKTAWNDVIAALPHYDCLALDLFDEGKMPENFTTLVEQVATELKGIEEDFVLIGLSLGAMLALALSDYTFPHIKGFIVSGAQHDLKRSFLYKLQLLGLQLLPKSFFKKQGVKKDSFLAFSKSLSTLDLRETIRQIDIPALILCGQKDKPNLLPARKIAELIPNARLSVIKKGGHLLNTKMPIVFAKEITDFLK	not soluble
MGSDKIHHHHHHMSHPEPYFQCNDPALSPAERANWIAVLPLGAHEQHGPHLPFETDTIIAQGVVDRLILALPDTLPVTFLPVEPVGYSVEHMDVFGTRTLTFNEAVERWLGIAETLSGQGIRKLMMLNAHGGNSPLMTVVATEARIRFSMLAVATSWTRFGQPDGLIRPEDKAIDIHGGDIETSVMLALRPDLVAMDKAQNFSSRQSEFAARFTHLRAYGPHAFGWKMADLNPLGVAGNASVATAEKGENLLSHAVHGLVELLWDIHDFDIEKAFELPPHSSYMG	not soluble
MGSDKIHHHHHHMELDDAYANGAYIEGAADYPPRWAASAEDFRNSLQDRARLNLSYGEGDRHKFDLFLPEGTPVGLFVFVHGGYWMAFDKSSWSHLAVGALSKGWAVAMPSYELCPEVRISEITQQISQAVTAAAKEIDGPIVLAGHSAGGHLVARMLDPEVLPEAVGARIRNVVPISPLSDLRPLLRTSMNEKFKMDADAAIAESPVEMQNRYDAKVTVWVGGAERPAFLDQAIWLVEAWDADHVIAFEKHHFNVIEPLADPESDLVAVITA	not soluble
MDEDTEDWETQLQANRDEKDRFFSEHRQSPIPPEERDDFDGLSYFDPDPDYRVEATVTVHETPESVDLETSDDRTVRYLHVATLSFDLDGESRDLHAFRQAADESRTLFVPFRDKTTGQQSYDGGRYMELEPDRDLSDGDEITLDFNLAYSPFCAYSDTFSCPLPPESNWLETAVTAGERTDLEHHHHHH	soluble
SEPGETIVEAMQREVKEEAGLLCEPVTLLSVEERGASWIRFVFLARPTGGVLKTSKDADSESLQAGWYPRVSLPTPLRAHDVLHLVELGAKFCQQAMHPLILPQELPCSVVCQRLVTTFTTVQSVWVLVGTVGTPHLPITACGFTPMEQRGGIKVAILRLLQECLTLHSLAVETKGLLGLQHLGRDHVDGVCLNVLVTVAFRNPGIQDEPPKIRGENYFWWKVLEEDLQKLLLYRLQESSVIPLSR	soluble
MSLSDDTIDRFFGYLNWLFNPFHGLKTTEVYDLIGTSSLTENALYLNLGYWRKADTIDEASEALALLVAKRGGMGPGDIVLDCGYGFGDQDILWARQLKPEKIIGLNITSSQVERARKRVADAGLEQSIDLREGSATAMPIENESIDLVVSVESAFHYRTREAFFREAFRVLRPGGRLVTADIVPTENSGNPFRRMEQWFSWNLVAGKFNIPQENYYLIPSYQNKLTKAGFVQIDIKSIRDDVYEPLHAYLAKNRTFFAKMHPLARIMAQLTLNRSAESVYAGLDYILSYAEKEGHHHHHH	soluble
MVKVGYIQMEPKILELDKNYSKAEKLIKEASKEGAKLVVLPELFDTGYNFESREEVFDVAQQIPEGETTTFLMELARELGLYIVAGTAEKSGNYLYNSAVVVGPRGYIGKYRKIHLFYREKVFFEPGDLGFKVFDIGFAKVGVMICFDWFFPESARTLALKGAEIIAHPANLVMPYAPRAMPIRALENRVYTITADRVGEERGLKFIGKSLIASPKAEVLSIASETEEEIGVVEIDLNLARNKRLNDMNDIFKDRREEYYFR	soluble
MSLGRYCTDTEWTWFIPGKSPIKTDTIFREVAINGKTGLRTCHIDENTRFEVYEFWPSDLLRIFRRAGIQRHTPPFFEPGCALSGNSGISPQITSPQAGVSYIVHANTQSNKIIPLTAVTDAGIAHLYWFINESFVAETKSDEPYLWQAKPGKYVVRVVDDRGLSDARDITIQMVSEGHHHHHH	soluble
MTKTEGKTASAAVKDILLSNPDGLREVIRTVMQEVLEAEMDEALGAAKGERTPERLGYRSGHYGRTLITRVGKLELRVPQDRSGHFSTELFERYQRSERALVATLAEMYVQGVSTRKVKAITEELCGHAFSASSISAINKRLDESLKAFAERSLEEPFAYLILDARYEKVREAGVVMSQAVLIAVGIDWDGRRQILSVEMAGRESRSAWKDFLVRLKGRGLKGVELVVSDDHAGLVAAIGEVIPEAAWQRCYVHFLRNALDHLPRKHGDDCLQELRWLYDRRDLDEAKADLAAWLGKWSVRYPRLTSWVEETIEQTLTFFRLPRQHHKHLKSTNMLERLNEEIRRRTYVVRIFPNTESCLRLVRALAVETHENWMEANRYINMDDLREHKKLALRQAA	not soluble
MGSDKIHHHHHHMMTKTKADKYPQRVRNELRFRELTVLRVERAGAAFQRIVLGGEALEGFASHGFDDHTKLFFPEPGAAFTPPQVTEEGIDWGEGVRPATRDYTPLYDAERHELAYDFYIHDGGIASRWALEAKVGDKLVIGGPRGSLVVPEDYAWQLYVCDESGMPALRRRLLGLRQLPARPQVTAIVTIADASYKDYLADLDGFNIEWVVGHNPAFVAERLAQVKVPAEDYFIWLTGEGAVVKSLLARFEDESIDQQLVRSQAYWHSK	not soluble
SKLVWSPETASKAYIDTVKSCENLETPDAAELIAAMAAGWNVKLIVETWSEGDAIASSIGLNVASKHANAKHICIVQNSRSESAYLQAIQESSSPLNFPETIVAEEPGKAMKKLQGVDFLVVDWRNKEFAAAALKNAAFGNRGAVVVCRNGYSSLRRVLRDRKVVRTVTLPVTGGIEIAHVAARNSGKSGNNKRRWITHVDQRSGEEHVFSI	soluble
MADNPTNLRNADFRKLLTSARSDRPAVSAFAKPADPKTGDDKPASFKHKHLKPAKFKKPQAAAHGKAKKEKTEADEDEAALKNILKNYRDRAAERRKQGDEKEDPSKLTAAYRAVPGDARSAQDQADLRKQAILESKYLGGDLEHTHLVKGLDYSLLNKVRSEIDKSDDDDDDDIDTAFDEKVTSSSSSSKPSEASLLAQELAQSHSENRMVRSLHRVLFKNEVPLHNQLFAKGRMAYVVELEDEETDIPTTLLRSLHDLPRAESAQSIQANNLIILKLSHVLSHLRAEPKKKKKEEFRVQLGSRDAPGAAAAAPGAKGDSIYDDLDDYVPSRKSRDSRDAGRRGSRRDRSRDRSRDRDRDRDRDNRDRYFEKSANSRREEEQNRREQQRERERAEQERRREREKEREQEKAKEREKKRKELEESSGYDECYPGGLVEMGGAWDSDEEADYSKMDAGPKKNQAVNRWDFDTEEEYASYMEGREALPKAAYQYGVKNGEGGRKNKKQSAVSDAKRLDRELNEINKIMDKRKAGGDGAGGGGDYKKPKY	not soluble
MGSDKIHHHHHHMHFYRSLGPIRAITFDLDDTLYDNADVIRRTGQESIRFLQEYHPALRDFQADDFQNLRQTLLEREPDIYHDVTEWRRRAVELAMLDRGLSAAESKDGAKAAMENFAHWRSQIAITEETHQTLAALAEKVPLAAITNGNAEPHRFGLERYFSFILRAGPHGRAKPFDDMYHLAAEKLNLPLHEILHVGDDLTTDVAGSIRCGMQACWINLREGSLTQIGDARLLPHIEISRLASLSALL	not soluble
MSLEKLKSTEFYASQIKHCFTIPSRTAKYKGLCFELAPEVYQGMEHENFYSHQADAINSLHQGENVIITTSTSSGKSLIYQLAAIDLLLKDPESTFMYIFPTKALAQDQKRAFKVILSKIPELKNAVVDTYDGDTEPEERAYIRKNARVIFTNPDMIHTSILPNHANWRHFLYHLKLVVVDELHIYKGLFGSHVALVMRRLLRLCHCFYENSGLQFISCSATLKSPVQHMKDMFGINEVTLIHEDGSPTGAKHLVVWNPPILPQHERKRENFIRESAKILVQLILNNVRTIAFCYVRRVCELLMKEVRNIFIETGREDLVTEVMSYRGGYSASDRRKIEREMFHGNLKAVISTNALELGIDIGGLDAVLMCGFPLSMANFHQQSGRAGRRNNDSLTLVVASDSPVDQHYVAHPESLLEVNNFESYQDLVLDEGHHHHHH	not soluble
MSLHLYTKHIYFIGGKGGVGKSTSAASFAWRCAERGEKTLLISTDPAHNLGDLFHTEIGAKHKKITDNLFATEIDPEQETRRYIQSVKDNLRGMVKSTMLDEVNRQIDAAAATPGADEAAMFNAISSIVLDEQGTYDKLVFDTAPTGHTIRLLTLPEMMGVWIDGMVKKRKKINENYSNLLNDGEPVDDPIYDTLQQRKERFAAVRNVLLDPKKTGFMFVLIPERLPILETEKAVKLLAKHDLHVETLIINKILPDVADGQFLEKRRQIEQRYLQQIHNTFRKQTLLRVPLFPEDIGSIEALYHFARYLEPTAEGHHHHHH	soluble
KGLDKWGIYVPESAAQSVKDAVFEAGAGAIGDYSQCSFEWQGTGQFLPHHNAQPVVGHPGQLERTEELRVEFVAPARLRTTLIDAIRAAHPYEEPAFDVVSMQSTQDLETAEGLGRVGTLPEPMRFGDFVQQVADALPETSWGIRAAGDPEQMVHTVAVSSGSGDSFLDAVAALGVDVYVTSDLRHHPADESRRAQGPLLIDTAHWASEFPWTYQVQELLAQEFAQLDVEVATLRTDPWNISAHPQLR	not soluble
